Measured values: patent publication US20160060347A1 (MorphoSys, published 2016)
Where no end group is shown, it is not given here.

T1: N-Terminal Peptide aa1-17 (Transferrin- or BSA-Coupled) (human, also: coupled to carrier protein (BSA or transferrin), site not given here)
T1 peptide: MEDFNMESDSFEDFWKGC

T2: peptide derived of extracellular domain three (human, coupled to a carrier protein (BSA or transferrin, not stated which))
T2 construct: also called ECL3 peptide
T2 peptide: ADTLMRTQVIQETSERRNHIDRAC

T3: human CXCR2 (human, UniProt P25025 1-360)
T3 construct: Expressed on Flp-In CHO cells (FACS, Fab-ZAP, ADCC, CDC) or on bought PathHunter CHO cells (beta-arrestin assay); the construct in the PathHunter cells is not described; also called chemokine receptor CXCR2; CXCR2 CHO Flp-In cells
T3 sequence: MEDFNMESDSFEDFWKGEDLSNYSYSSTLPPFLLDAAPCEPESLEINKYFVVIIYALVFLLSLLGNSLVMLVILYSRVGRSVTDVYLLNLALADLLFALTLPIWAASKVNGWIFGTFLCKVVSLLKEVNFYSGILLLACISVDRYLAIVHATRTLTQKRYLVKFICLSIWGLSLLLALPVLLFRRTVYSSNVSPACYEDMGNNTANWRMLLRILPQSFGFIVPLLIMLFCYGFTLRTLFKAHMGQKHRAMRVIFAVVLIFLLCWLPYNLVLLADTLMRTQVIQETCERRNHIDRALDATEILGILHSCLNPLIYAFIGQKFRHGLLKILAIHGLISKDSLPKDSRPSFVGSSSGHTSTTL


Legend:
[1] = target: T4, hu_CXCR2_N-term (1-17)-Trf (human, coupled to carrier protein human transferrin; C-terminal cysteine introduced to enable coupling); assay: ELISA, coated peptide-TRF, Fab
T4 construct: Synthetic linear peptide chemically coupled to the carrier; also called CXCR2_aa1-17_TRF; N-terminal peptide aa1-17, Transferrin-coupled
Procedure: (§1) 384-well Maxisorp plates (Nunc; Cat. #460518) were coated with respective CXCR2 and control peptides coupled either to BSA or Transferrin (TRF) at 1-5 μg/mL and incubated o/n at 4° C. […] After three washing steps, antibodies were added at 5-10 μg/mL and titrated in some experiments. Antibodies were incubated 1 h at room temperature and plates were subsequently washed. Binding of anti-CXCR2 antibodies was detected by using alkaline phosphatase-conjugated anti-human IgG, (Dianova, Cat #109-055-097). AttoPhos fluorescence substrate (Roche, Cat #1484281) was added according to instructions of the manufacturer and fluorescence was measured (excitation at 430 nm, emission at 535 nm) using a microplate reader.
(§2) The Fabs were further tested including affinity determination via BiaCore, EC₅₀ determination in ELISA and FACS, as well as the evaluation of cellular cytotoxicity via secondary immunotoxin (Saporin) upon antibody internalization (Fab-ZAP). Respective experimental settings as outlined in Example 3 were used.

[2] = target: T5, hu_CXCR2_N-term (1-17)-BSA (human; bovine, coupled to carrier protein BSA; C-terminal cysteine introduced to enable coupling); assay: ELISA, coated peptide-BSA, Fab
T5 construct: Synthetic linear peptide chemically coupled to the carrier; also called CXCR2_aa1-17_BSA; CXCR2 aa1-17 BSA
Procedure: as §1, §2

[3] = target: T4, hu_CXCR2_N-term (1-17)-Trf; assay: SPR (Biacore), peptide-TRF immobilized, Fab analyte, steady-state fit
Procedure: (§3) Affinities (KD values) were determined using SPR (Biacore T200, GE Healthcare) using the following setup: The antigens (hu_CXCR2_N-term (1-17)-BSA, or hu_CXCR2_N-term (1-17)-Trf, respectively) were covalently coupled to a CM5 sensor chip using NHS/EDC chemistry. Antigens were diluted in 10 mM Acetate pH4.5 to a concentration of approx. 100 μg/mL. The final immobilization level was approx. 400 RU for the BSA-coupled peptide and 200 RU for the TRF-coupled peptide. HBS-EP pH7 was used as running buffer throughout the experiment at a flow rate of 30 μL/min. Fab fragments were used as samples (monomer portion at least 90% as determined by HP-SEC, Superdex 75 PC3.2/30 (GE Healthcare). Of each sample, a 2n serial dilution row from 31.25-1000 nM was prepared (6 concentrations) and injected, followed by a blank injection, which was later used for double referencing. Association of Fab samples was recorded for 240 s, and dissociation was monitored for 300 s. At the end of each cycle bound (Fab−) sample was removed from the sensor with one 30 s injection of MgCl2 (3M).
(§4) Most of the recorded binding curves deviated from the expected bimolecular binding model (1:1), but the sensorgrams seemed to reach equilibrium towards the late association phase. Therefore, the binding data (report point late association) was fitted to a steady state model. The Req vs. concentration plots/fits followed the assumed one-binding-site model, and the resulting KD were reported. EC50 values determined by ELISA were in the single digit nanomolar range on N-terminal CXCR2 peptides. […] Respective results of selected 6 Fabs are summarized in Table 1 (data of one representative experiments are shown).

[4] = target: T1, N-Terminal Peptide aa1-17 (Transferrin- …); assay: initial screening, Fab; carrier of the peptide not stated
[5] = target: T2, peptide derived of extracellular domain …; assay: ELISA, Fab
Procedure: as §1, §2

human CXCR2 [6] = target: T3, human CXCR2; assay: FACS, CXCR2 CHO Flp-In cells, Fab
Procedure: (§5) Human CXCR2-expressing Flp-In™ CHO cells were harvested at ˜80% confluence washed once with PBS (Gibco, Cat #14190-094) and detached using Versene (Invitrogen, Cat #15040-033). Subsequently, cells were counted and centrifuged at 250×g for 5 min at 4° C. Afterwards, cells were diluted in Superblock (Thermo Fisher Perbio Science, Cat #37515) to a cell concentration of 2E+05-1E+06/mL and 100 μL/well were transferred to 96-well microtiter plate (Nunc, Cat#163320). Cells were once centrifuged, supernatant discarded and antibodies added at 1 μg/mL (unless stated otherwise), incubated for 1 h at 4° C. and washed twice with FACS buffer (PBS/3% FCS/0.02% NaN3). Binding of anti-CXCR2 antibodies was detected by incubation of Phycoerythrin-conjugated anti-human IgG (Dianova, Cat #109-116-097) for 1 h at 4° C. Samples were subsequently measured using FACS Array (Becton Dickinson).
as §2

[7] = target: T5, hu_CXCR2_N-term (1-17)-BSA; assay: SPR (Biacore), peptide-BSA immobilized, Fab analyte, steady-state fit
Procedure: as §3, §4

[8] = target: T5, hu_CXCR2_N-term (1-17)-BSA; assay: ELISA, coated peptide-BSA, IgG1
Procedure: as §1

[9] = target: T6, ECL3 peptide aa273-295, BSA-coupled (human; bovine, coupled to carrier protein BSA; C-terminal cysteine introduced to enable coupling); assay: ELISA, coated peptide-BSA, IgG1
T6 construct: also called CXCR2 aa273-295 BSA; peptides representing the extracellular domain 3
Procedure: as §1

[10] = target: T7, N-terminal peptide aa1-48, BSA-coupled (human; bovine, coupled to carrier protein BSA; C-terminal cysteine introduced to enable coupling); assay: ELISA, coated peptide-BSA, IgG1
T7 construct: also called CXCR2 aa1-48 BSA
Procedure: as §1

human CXCR2 [11] = target: T3, human CXCR2; assay: FACS, CXCR2 CHO Flp-In cells, IgG1
Procedure: as §5

T5 sequence (P02769 25-607 limits assumed): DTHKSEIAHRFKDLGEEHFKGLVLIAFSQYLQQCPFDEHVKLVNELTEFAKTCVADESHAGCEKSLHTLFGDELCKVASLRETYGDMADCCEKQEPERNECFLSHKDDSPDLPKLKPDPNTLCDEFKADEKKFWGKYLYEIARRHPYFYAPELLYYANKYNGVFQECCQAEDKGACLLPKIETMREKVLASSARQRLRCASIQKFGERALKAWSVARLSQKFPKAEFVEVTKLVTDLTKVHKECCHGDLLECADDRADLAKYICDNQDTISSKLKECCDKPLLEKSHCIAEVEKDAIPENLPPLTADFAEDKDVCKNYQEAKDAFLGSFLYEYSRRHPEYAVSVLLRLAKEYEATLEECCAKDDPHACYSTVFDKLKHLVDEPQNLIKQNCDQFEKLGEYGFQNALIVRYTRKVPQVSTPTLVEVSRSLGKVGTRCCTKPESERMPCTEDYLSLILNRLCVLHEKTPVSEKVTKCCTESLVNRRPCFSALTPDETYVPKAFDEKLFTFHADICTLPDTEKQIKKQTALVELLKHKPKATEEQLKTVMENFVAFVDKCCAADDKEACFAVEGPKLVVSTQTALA
T4 sequence (P02787 20-698 limits assumed): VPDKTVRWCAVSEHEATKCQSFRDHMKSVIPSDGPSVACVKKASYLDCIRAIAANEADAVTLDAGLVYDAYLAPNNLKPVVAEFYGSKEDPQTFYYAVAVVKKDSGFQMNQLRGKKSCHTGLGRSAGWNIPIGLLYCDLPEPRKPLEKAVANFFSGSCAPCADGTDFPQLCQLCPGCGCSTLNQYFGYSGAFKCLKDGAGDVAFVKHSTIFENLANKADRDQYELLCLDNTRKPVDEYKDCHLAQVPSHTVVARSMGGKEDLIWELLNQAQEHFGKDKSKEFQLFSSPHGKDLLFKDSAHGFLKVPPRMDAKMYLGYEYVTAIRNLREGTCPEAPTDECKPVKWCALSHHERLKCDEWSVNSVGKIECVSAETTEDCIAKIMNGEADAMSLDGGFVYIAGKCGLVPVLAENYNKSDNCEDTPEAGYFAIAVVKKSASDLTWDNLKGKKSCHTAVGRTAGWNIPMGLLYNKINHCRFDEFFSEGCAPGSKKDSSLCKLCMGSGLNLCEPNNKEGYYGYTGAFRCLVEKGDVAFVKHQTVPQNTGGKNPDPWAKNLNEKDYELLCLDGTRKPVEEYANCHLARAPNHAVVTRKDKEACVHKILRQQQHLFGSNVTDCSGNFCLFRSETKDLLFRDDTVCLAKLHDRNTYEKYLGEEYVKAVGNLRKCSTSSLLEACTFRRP
T7 sequence (P02769 25-607 limits assumed): as the sequence (P02769 25-607 limits assumed) above
T6 sequence (P02769 25-607 limits assumed): as above

Row | EC50 [1] | EC50 [2] | Kd [3] | signal over background [4] | binding result [5] | EC50 (human CXCR2 [6]) | Kd [7] | binding result [8] | binding result [9] | binding result [10] | binding result (human CXCR2 [11]) | Binder
1 |  |  |  |  |  |  |  | binds | binds | binds | binds | CX2-Mab #1.5 (antibody, IgG1, V domains shown) VH: QVQLVQSGAEVKKPGSSVKVSCKASGGTFSSYAISWVRQAPGQGLEWMGGIIPIVGEAKYAQKFQGRVTITADESTSTAYMELSSLRSEDTAVYYCARDSSGYDGYYAFAYWGQGTQVTVSS VL: DIVLTQPPSVSGAPGQRGTISCSGSSSNIGSSSVNWYQQLPGTAPKLLIYRNNQRPSGVPDRFSGSKSGTSASLAITGLQAEDEADYYCASTDSQWRQIVFGGGTKLTVLG
2 | 0.5 nM | 0.6 nM | 149 nM | ≥ 5 fold | no binding | > 6000 nM | 146 nM |  |  |  |  | CX2-Mab #5 (Fab format) (Fab, V domains shown) VH: EVQLLESGGGLVQPGGSLRLSCAASGFTFNSNAMSWVRQAPGKGLEWVSFISYSGSHTYYADSVKGRFTISRDNSKNTLYLQMNSLRAEDTAVYYCARYTRFLSRPAFDPWGQGTLVTVSS VL: DIVLTQPPSVSGAPGQRVTISCTGSSSNIGAGYDVHWYQQLPGTAPKLLIYYNSKRPSGVPDRFSGSKSGTSASLAITGLQAEDEADYYCGAYDRKMNSYVFGGGTKLTVLG
3 |  |  |  |  |  |  |  | binds | binds | binds | binds | CX2-Mab #3.1 (antibody, IgG1, V domains shown) VH: QVQLLESGGGLVQPGGSLRLSCAASGFTFSSYWMSWVRQAPGKGLEWVSVISYSGSETFYADSVKGRFTISRDNSKNTLYLQMNSLRAEDTAVYYCARGRVGYAFDYWGQGTLVTVSS VL: DIVLTQPPSVSGAPGQRVTISCSGSSSNIGVNYVNWYQQLPGTAPKLLIYSNNQRPSGVPDRFSGSKSGTSASLAITGLQAEDEADYYCQTRAVHFARVVFGGGTKLTVLG
4 | 1.3 nM | 3.6 nM | 210 nM | ≥ 5 fold | no binding | > 6000 nM | 221 nM |  |  |  |  | CX2-Mab #2 (Fab format) (Fab, V domains shown) VH: QVQLVQSGAEVKKPGASVKVSCKASGYTFSRYAMHWVRQAPGQGLEWMGVINPYNGNTRYAQKFQGRVTMTRDTSISTAYMELSRLRSEDTAVYYCARGSHIQAGAFDYWGQGTLVTVSS VL: DIQMTQSPSSLSASVGDRVTITCRASQGINNRLNWYQQKPGKAPKLLIYDGSSLQSGVPSRFSGSGSGTDFTLTISSLQPEDFATYYCQQYIHFPVTFGQGTKVEIKR

The next lines start with the binder.

Row | Binder | EC50 [1] | EC50 [2] | Kd [3] | signal over background [4] | binding result [5] | EC50 (human CXCR2 [6]) | Kd [7] | binding result [8] | binding result [9] | binding result [10] | binding result (human CXCR2 [11])
5 | CX2-Mab #1 (Fab format) (Fab, V domains shown) VH: QVQLVQSGAEVKKPGSSVKVSCKASGGTFSSYAISWVRQAPGQGLEWMGGIIPIVGEAKYAQKFQGRVTITADESTSTAYMELSSLRSEDTAVYYCARDSSGYDGYYAFAYWGQGTQVTVSS VL: DIVLTQPPSVSGAPGQRGTISCSGSSSNIGSSSVNWYQQLPGTAPKLLIYRNNQRPSGVPDRFSGSKSGTSASLAITGLQAEDEADYYCGATDFSANQVVFGGGTKLTVLG | 1 nM | 6.1 nM | 269 nM | ≥ 5 fold | no binding | 365 nM | 534 nM |  |  |  | 
6 | CX2-Mab #6 (Fab format) (Fab, V domains shown) VH: EVQLLESGGGLVQPGGSLRLSCAASGFTFSSYTMSWVRQAPGKGLEWVSAIHSSGSSTYYADSVKGRFTISRDNSKNTLYLQMNSLRAEDTAVYYCARVPAYYGFDHWGQGTLVTVSS VL: DIELTQPPSVSVSPGQTASITCSGDSLGAFYVHWYQQKPGQAPVLVIYRTNNRPSGIPERFSGSNSGNTATLTISGTQAEDEADYYCASYASRNRVFGGGTKLTVLG | 0.5 nM | 1.3 nM | 251 nM | ≥ 5 fold | no binding | 195 nM | 353 nM |  |  |  | 
7 | CX2-Mab #4 (Fab format) (Fab, V domains shown) VH: EVQLLESGGGLVQPGGSLRLSCAASGFTFSSNGMSWVRQAPGKGLEWVSAISSSGSKTYYADSVKGRFTISRDNSKNTLYLQMNSLRAEDTAVYYCARGYGFDVWGQGTLVTVSS VL: DIVLTQPPSVSGAPGQRVTISCSGSSSNIGVNIVNWYQQLPGTAPKLLIYSTSNRPSGVPDRFSGSKSGTSASLAITGLQAEDEADYYCATRDGISKSVVFGGGTKLTVLG | 0.4 nM | 0.8 nM | 101 nM | ≥ 5 fold | no binding | 136 nM | 143 nM |  |  |  | 
8 | CX2-Mab #3 (Fab format) (Fab, V domains shown) VH: EVQLLESGGGLVQPGGSLRLSCAASGFTFSSYWMSWVRQAPGKGLEWVSVISYSGSETFYADSVKGRFTISRDNSKNTLYLQMNSLRAEDTAVYYCARGRVGYAFDYWGQGTLVTVSS VL: DIVLTQPPSVSGAPGQRVTISCSGSSSNIGVNYVNWYQQLPGTAPKLLIYSNNQRPSGVPDRFSGSKSGTSASLAITGLQAEDEADYYCQSRASGFYSVVFGGGTKLTVLG | 2 nM | 4.7 nM | 317 nM | ≥ 5 fold | no binding | 105 nM | 393 nM |  |  |  | 
